Experimental findings from patent publication US20250276075A1, “METHODS OF TREATING AXL-EXPRESSING CANCERS WITH ANTI-AXL ANTIBODIES, ANTIBODY FRAGMENTS AND THEIR IMMUNOCONJUGATES” (BIOATLA, INC., priority 2020, published 2025) are described below.

For test [1], the target named is Axl (UniProt P30530). Nature of the test: ELISA, 1:9 dilution.
Test [2] addresses T1, Axl (Homo sapiens, UniProt P30530).
T1 sequence (P30530 26-451 limits assumed): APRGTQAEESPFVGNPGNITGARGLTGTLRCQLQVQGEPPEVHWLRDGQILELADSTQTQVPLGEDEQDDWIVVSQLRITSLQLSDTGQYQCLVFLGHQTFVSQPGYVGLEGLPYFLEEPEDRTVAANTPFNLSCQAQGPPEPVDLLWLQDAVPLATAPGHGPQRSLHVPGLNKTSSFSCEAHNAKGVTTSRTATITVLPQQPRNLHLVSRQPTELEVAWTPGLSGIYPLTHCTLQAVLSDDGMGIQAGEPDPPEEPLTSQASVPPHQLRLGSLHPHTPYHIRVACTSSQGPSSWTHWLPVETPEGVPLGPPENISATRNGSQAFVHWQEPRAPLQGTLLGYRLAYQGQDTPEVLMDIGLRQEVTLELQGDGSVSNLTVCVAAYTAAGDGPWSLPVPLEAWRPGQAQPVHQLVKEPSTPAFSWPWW
As to the kind of experiment: Affinity ELISA of CPE mutant antibodies for binding to Axl at pH 6.0 over pH 7.4. To be noted: for Affinity ELISA CPE mutant ratio (1:3, pH 6.0/7.4): 1:3 dilution; for Affinity ELISA CPE mutant ratio (1:9, pH 6.0/7.4): 1:9 dilution. From the text: The DNA encoding the wild-type antibody was evolved to generate a mutant antibody library using Comprehensive Positional Evolution (CPE), which each position in the template antibody is randomized one at a time. Each mutant antibody in the library has only one single point mutation. The mutant antibodies in the library were generated by simultaneously screening for selective binding affinity to Axl at pH 6.0 over pH 7.4 by ELISA. Two mutant antibody dilutions were used: 1:3 and 1:9 dilutions. The mutant antibodies that have at least 1.5 ratio of binding affinity at pH 6.0 to at pH 7.4 under either 1:3 or 1:9 dilution are selected as conditionally active antibodies, with the single point mutations indicated in each of the heavy chain and light chain variable region (Tables 1 and 2).
A wild-type antibody to Axl was selected as the template antibody (with a heavy chain variable region of 063-hum10F10-HC in FIG. 1A and a light chain variable region of […]). The DNA encoding the wild-type antibody was evolved to generate a mutant antibody library using Comprehensive Positional Evolution (CPE), a method by which each position in the template antibody is randomized one at a time. Each mutant antibody in the library has only one single point mutation. The mutant antibodies in the library were generated by simultaneously screening for selective binding affinity to Axl at pH 6.0 over pH 7.4 as determined by ELISA.
Simultaneously, the expression level of the mutant antibodies was also optimized for the purpose of higher fields in a manufacturing process. The screening was done in serum using a FLAG tag because there were human antibodies in the serum which might cause false positives for the screening. The screening buffer was a carbonate buffer (Krebs buffer with ringer-standard buffer but different from PBS). […] Some of the selected mutant antibodies (scFv) were represented in FIG. 2 with their higher activity at pH 6.0 than at pH 7.4, while their activity ratios between pH 6.0 to pH 7.4 were at least 11 fold (FIG. 3).
A general note: An ELISA detects its analyte on a solid surface through an enzyme-linked reagent.

Test [3] deals with Axl (UniProt P30530). Nature of the test: ELISA, 1:3 dilution.
Setting [4] is: light chain variable region mutants.
Where [5] appears, read: heavy chain variable region mutants.

B1: LC-H091T (antibody, V domains shown)
VH: EVQLVQSGAEVKKPGATVKISCKVSGYSFTGHTMNWIRQPPGKGLEWIGLIKPSNGGTSYNQKFKGRVTISADKSISTAYLQWSSLKASDTAMYYCAHGHYESYFAMDYWGQGTLVTVSS
VL: DIQMTQSPSSLSASVGDRVTITCKASQDVSSAVAWYQQKPGQAPRLLIYWASTRHTGVPSRFSGSGSGTEFTLTISSLQPDDFATYYCQETFSTPLTFGQGTKVEIK
For B1, the results for the Affinity ELISA CPE mutant ratio (1:9, pH 6.0/7.4) with Axl [1] and in the test with Axl [2] (setting [4]) were 3.78 and 3.781, respectively. Besides, the “Affinity ELISA CPE mutant ratio (1:3, pH 6.0/7.4)” value in the test with Axl [2] (setting [4]) came out at 3.779; with Axl [3], 3.78.

B2: HC-E102N (antibody, V domains shown)
VH: EVQLVQSGAEVKKPGATVKISCKVSGYSFTGHTMNWIRQPPGKGLEWIGLIKPSNGGTSYNQKFKGRVTISADKSISTAYLQWSSLKASDTAMYYCAHGHYNSYFAMDYWGQGTLVTVSS
VL: DIQMTQSPSSLSASVGDRVTITCKASQDVSSAVAWYQQKPGQAPRLLIYWASTRHTGVPSRFSGSGSGTEFTLTISSLQPDDFATYYCQEHFSTPLTFGQGTKVEIK
As for B2, the values for the Affinity ELISA CPE mutant ratio (1:9, pH 6.0/7.4) in the test with Axl [1] and with Axl [2] (setting [5]) were 1.57 and 1.567, respectively. The “Affinity ELISA CPE mutant ratio (1:3, pH 6.0/7.4)” value was found to be 1.520 with Axl [2] (setting [5]) and 1.52 in the test with Axl [3].

B3: LC-F092E (antibody, V domains shown)
VH: EVQLVQSGAEVKKPGATVKISCKVSGYSFTGHTMNWIRQPPGKGLEWIGLIKPSNGGTSYNQKFKGRVTISADKSISTAYLQWSSLKASDTAMYYCAHGHYESYFAMDYWGQGTLVTVSS
VL: DIQMTQSPSSLSASVGDRVTITCKASQDVSSAVAWYQQKPGQAPRLLIYWASTRHTGVPSRFSGSGSGTEFTLTISSLQPDDFATYYCQEHESTPLTFGQGTKVEIK
In the case of B3, the Affinity ELISA CPE mutant ratio (1:9, pH 6.0/7.4) was found to be 2 with Axl [1] and 1.999 in the test with Axl [2] (setting [4]). Besides, the results for the “Affinity ELISA CPE mutant ratio (1:3, pH 6.0/7.4)” value in the test with Axl [2] (setting [4]) and with Axl [3] were 1.759 and 1.76, respectively.

B4: LC-F092D (antibody, V domains shown)
VH: EVQLVQSGAEVKKPGATVKISCKVSGYSFTGHTMNWIRQPPGKGLEWIGLIKPSNGGTSYNQKFKGRVTISADKSISTAYLQWSSLKASDTAMYYCAHGHYESYFAMDYWGQGTLVTVSS
VL: DIQMTQSPSSLSASVGDRVTITCKASQDVSSAVAWYQQKPGQAPRLLIYWASTRHTGVPSRFSGSGSGTEFTLTISSLQPDDFATYYCQEHDSTPLTFGQGTKVEIK
Consider B4, for which the Affinity ELISA CPE mutant ratio (1:9, pH 6.0/7.4) with Axl [1] came out at 2.94; with Axl [2] (setting [4]), 2.940. The “Affinity ELISA CPE mutant ratio (1:3, pH 6.0/7.4)” value with Axl [2] (setting [4]) was determined as 2.969; with Axl [3] it was 2.97.

B5: LC-A034D (antibody, V domains shown)
VH: EVQLVQSGAEVKKPGATVKISCKVSGYSFTGHTMNWIRQPPGKGLEWIGLIKPSNGGTSYNQKFKGRVTISADKSISTAYLQWSSLKASDTAMYYCAHGHYESYFAMDYWGQGTLVTVSS
VL: DIQMTQSPSSLSASVGDRVTITCKASQDVSSAVDWYQQKPGQAPRLLIYWASTRHTGVPSRFSGSGSGTEFTLTISSLQPDDFATYYCQEHFSTPLTFGQGTKVEIK
In the case of B5, the Affinity ELISA CPE mutant ratio (1:9, pH 6.0/7.4) was 2.6 with Axl [1] and 2.599 with Axl [2] (setting [4]). Further, the “Affinity ELISA CPE mutant ratio (1:3, pH 6.0/7.4)” value with Axl [2] (setting [4]) was 3.005; with Axl [3], 3.

B6: LC-H091Y (antibody, V domains shown)
VH: EVQLVQSGAEVKKPGATVKISCKVSGYSFTGHTMNWIRQPPGKGLEWIGLIKPSNGGTSYNQKFKGRVTISADKSISTAYLQWSSLKASDTAMYYCAHGHYESYFAMDYWGQGTLVTVSS
VL: DIQMTQSPSSLSASVGDRVTITCKASQDVSSAVAWYQQKPGQAPRLLIYWASTRHTGVPSRFSGSGSGTEFTLTISSLQPDDFATYYCQEYFSTPLTFGQGTKVEIK
For the molecule B6, the Affinity ELISA CPE mutant ratio (1:9, pH 6.0/7.4) in the test with Axl [1] was 5.13; with Axl [2] (setting [4]), 5.126. The “Affinity ELISA CPE mutant ratio (1:3, pH 6.0/7.4)” value with Axl [2] (setting [4]) amounted to 3.931; with Axl [3] it was 3.93.

B7: LC-V029N (antibody, V domains shown)
VH: EVQLVQSGAEVKKPGATVKISCKVSGYSFTGHTMNWIRQPPGKGLEWIGLIKPSNGGTSYNQKFKGRVTISADKSISTAYLQWSSLKASDTAMYYCAHGHYESYFAMDYWGQGTLVTVSS
VL: DIQMTQSPSSLSASVGDRVTITCKASQDNSSAVAWYQQKPGQAPRLLIYWASTRHTGVPSRFSGSGSGTEFTLTISSLQPDDFATYYCQEHFSTPLTFGQGTKVEIK
For B7, the Affinity ELISA CPE mutant ratio (1:9, pH 6.0/7.4) with Axl [1] stood at 2.65; with Axl [2] (setting [4]), 2.652. Further, the “Affinity ELISA CPE mutant ratio (1:3, pH 6.0/7.4)” value with Axl [2] (setting [4]) was found to be 2.595; with Axl [3], 2.6.

B8: LC-F092C (antibody, V domains shown)
VH: EVQLVQSGAEVKKPGATVKISCKVSGYSFTGHTMNWIRQPPGKGLEWIGLIKPSNGGTSYNQKFKGRVTISADKSISTAYLQWSSLKASDTAMYYCAHGHYESYFAMDYWGQGTLVTVSS
VL: DIQMTQSPSSLSASVGDRVTITCKASQDVSSAVAWYQQKPGQAPRLLIYWASTRHTGVPSRFSGSGSGTEFTLTISSLQPDDFATYYCQEHCSTPLTFGQGTKVEIK
For B8, the results for the Affinity ELISA CPE mutant ratio (1:9, pH 6.0/7.4) with Axl [1] and in the test with Axl [2] (setting [4]) were 4.58 and 4.576, respectively. Moreover, the “Affinity ELISA CPE mutant ratio (1:3, pH 6.0/7.4)” value with Axl [2] (setting [4]) worked out at 3.862; with Axl [3], 3.86.

B9: LC-V029W (antibody, V domains shown)
VH: EVQLVQSGAEVKKPGATVKISCKVSGYSFTGHTMNWIRQPPGKGLEWIGLIKPSNGGTSYNQKFKGRVTISADKSISTAYLQWSSLKASDTAMYYCAHGHYESYFAMDYWGQGTLVTVSS
VL: DIQMTQSPSSLSASVGDRVTITCKASQDWSSAVAWYQQKPGQAPRLLIYWASTRHTGVPSRFSGSGSGTEFTLTISSLQPDDFATYYCQEHFSTPLTFGQGTKVEIK
Turning to B9, the Affinity ELISA CPE mutant ratio (1:9, pH 6.0/7.4) with Axl [1] amounted to 2.35; with Axl [2] (setting [4]), 2.353. Besides, the entries for the “Affinity ELISA CPE mutant ratio (1:3, pH 6.0/7.4)” value with Axl [2] (setting [4]) and with Axl [3] were 2.310 and 2.31, respectively.

B10: LC-A032L (antibody, V domains shown)
VH: EVQLVQSGAEVKKPGATVKISCKVSGYSFTGHTMNWIRQPPGKGLEWIGLIKPSNGGTSYNQKFKGRVTISADKSISTAYLQWSSLKASDTAMYYCAHGHYESYFAMDYWGQGTLVTVSS
VL: DIQMTQSPSSLSASVGDRVTITCKASQDVSSLVAWYQQKPGQAPRLLIYWASTRHTGVPSRFSGSGSGTEFTLTISSLQPDDFATYYCQEHFSTPLTFGQGTKVEIK
With B10, the Affinity ELISA CPE mutant ratio (1:9, pH 6.0/7.4) came to 2.27 with Axl [1] and 2.272 in the test with Axl [2] (setting [4]). Besides, the “Affinity ELISA CPE mutant ratio (1:3, pH 6.0/7.4)” value in the test with Axl [2] (setting [4]) is 1.982; in the test with Axl [3], 1.98.

B11: LC-A032M (antibody, V domains shown)
VH: EVQLVQSGAEVKKPGATVKISCKVSGYSFTGHTMNWIRQPPGKGLEWIGLIKPSNGGTSYNQKFKGRVTISADKSISTAYLQWSSLKASDTAMYYCAHGHYESYFAMDYWGQGTLVTVSS
VL: DIQMTQSPSSLSASVGDRVTITCKASQDVSSMVAWYQQKPGQAPRLLIYWASTRHTGVPSRFSGSGSGTEFTLTISSLQPDDFATYYCQEHFSTPLTFGQGTKVEIK
With B11, the Affinity ELISA CPE mutant ratio (1:9, pH 6.0/7.4) turned out to be 2.92 in the test with Axl [1] and 2.920 in the test with Axl [2] (setting [4]). Moreover, the entries for the “Affinity ELISA CPE mutant ratio (1:3, pH 6.0/7.4)” value with Axl [2] (setting [4]) and in the test with Axl [3] were 4.757 and 4.76, respectively.

B12: LC-H091V (antibody, V domains shown)
VH: EVQLVQSGAEVKKPGATVKISCKVSGYSFTGHTMNWIRQPPGKGLEWIGLIKPSNGGTSYNQKFKGRVTISADKSISTAYLQWSSLKASDTAMYYCAHGHYESYFAMDYWGQGTLVTVSS
VL: DIQMTQSPSSLSASVGDRVTITCKASQDVSSAVAWYQQKPGQAPRLLIYWASTRHTGVPSRFSGSGSGTEFTLTISSLQPDDFATYYCQEVFSTPLTFGQGTKVEIK
B12: the Affinity ELISA CPE mutant ratio (1:9, pH 6.0/7.4) in the test with Axl [1] was 1.17; in the test with Axl [2] (setting [4]) it was 1.171. The “Affinity ELISA CPE mutant ratio (1:3, pH 6.0/7.4)” value was 4.133 in the test with Axl [2] (setting [4]) and 4.13 with Axl [3].
